Earlier results on one substance are cited in article PMC9458874.

The target in the data set is HAB1 (Arabidopsis thaliana) (UniProt Q9CAJ0).
Sequence of UniProt Q9CAJ0 (Q9CAJ0 23-511): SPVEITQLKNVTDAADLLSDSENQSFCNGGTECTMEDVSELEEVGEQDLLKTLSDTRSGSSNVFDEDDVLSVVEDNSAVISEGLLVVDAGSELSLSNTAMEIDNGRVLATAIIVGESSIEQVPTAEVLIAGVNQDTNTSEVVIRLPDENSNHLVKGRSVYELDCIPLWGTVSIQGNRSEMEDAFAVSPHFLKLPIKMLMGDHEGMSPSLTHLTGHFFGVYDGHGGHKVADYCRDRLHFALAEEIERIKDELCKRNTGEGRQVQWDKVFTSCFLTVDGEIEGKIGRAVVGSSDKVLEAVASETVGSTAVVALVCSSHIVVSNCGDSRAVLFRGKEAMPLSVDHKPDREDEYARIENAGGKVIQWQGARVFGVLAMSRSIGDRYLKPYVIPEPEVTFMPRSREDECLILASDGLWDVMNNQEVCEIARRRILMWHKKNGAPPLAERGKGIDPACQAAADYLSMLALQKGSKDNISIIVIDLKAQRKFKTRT

As a reminder, the Kd is the free concentration of one partner at which half of the binding sites on the other are occupied at equilibrium, for simple one-to-one binding. With PYR1 (from UniProt O49686), the equilibrium dissociation constant (Kd) was 30 nM.
